Molecular target: T1, SF3B1-3 (pET15b-SF3B1-3, amino acids 955–1304) (UniProt O75533 955-1304)
T1 construct: SF3B1, amino acids 955–1304, HEAT 11–22 domain; methods are in the supplement; also called HEAT 11–22 domain of SF3B1; source: recombinant protein from pET15b-SF3B1-3
Test: pull-down; cell-free system; recombinant KHSRP-KH4Q and SF3B1-3; inputs and pulled-down proteins detected by Coomassie staining and Western blotting
Conditions: both partners purified

T1 sequence (O75533 955-1304): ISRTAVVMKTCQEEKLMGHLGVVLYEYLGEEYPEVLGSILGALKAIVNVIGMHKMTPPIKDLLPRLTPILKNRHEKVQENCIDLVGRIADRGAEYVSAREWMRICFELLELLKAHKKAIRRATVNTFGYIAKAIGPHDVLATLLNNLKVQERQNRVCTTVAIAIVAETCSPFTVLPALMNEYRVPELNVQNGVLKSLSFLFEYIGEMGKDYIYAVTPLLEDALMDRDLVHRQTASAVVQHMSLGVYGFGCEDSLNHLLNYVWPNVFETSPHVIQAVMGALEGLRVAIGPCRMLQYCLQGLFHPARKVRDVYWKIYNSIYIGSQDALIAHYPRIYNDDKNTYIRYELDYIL

binding result: binds
B1: KHSRP-KH4Q (pET15b-KHSRP-KH4Q, amino acids 435–710) (domain or fragment, UniProt Q92945 435-710, looked up)
chain: KCGLVIGRGGENVKAINQQTGAFVEISRQLPPNGDPNFKLFIIRGSPQQIDHAKQLIEEKIEGPLCPVGPGPGGPGPAGPMGPFNPGPFNQGPPGAPPHAGGPPPHQYPPQGWGNTYPQWQPPAPHDPSKAAAAAADPNAAWAAYYSHYYQQPPGPVPGPAPAPAAPPAQGEPPQPPPTGQSDYTKAWEEYYKKIGQQPQQPGAPPQQDYTKAWEEYYKKQAQVATGGGPGAPPGSQPDYSAAWAEYYRQQAAYYGQTPGPGGPQPPPTQQGQQQA
notes: methods are in the supplement; also called KH4–Q-rich domain of KHSRP; source: recombinant protein from pET15b-KHSRP-KH4Q
